# T1: RRM1 subunit of ribonucleotide reductase (human (endogenous in RKO), UniProt P23921 1-792)
# T1 sequence (looked up): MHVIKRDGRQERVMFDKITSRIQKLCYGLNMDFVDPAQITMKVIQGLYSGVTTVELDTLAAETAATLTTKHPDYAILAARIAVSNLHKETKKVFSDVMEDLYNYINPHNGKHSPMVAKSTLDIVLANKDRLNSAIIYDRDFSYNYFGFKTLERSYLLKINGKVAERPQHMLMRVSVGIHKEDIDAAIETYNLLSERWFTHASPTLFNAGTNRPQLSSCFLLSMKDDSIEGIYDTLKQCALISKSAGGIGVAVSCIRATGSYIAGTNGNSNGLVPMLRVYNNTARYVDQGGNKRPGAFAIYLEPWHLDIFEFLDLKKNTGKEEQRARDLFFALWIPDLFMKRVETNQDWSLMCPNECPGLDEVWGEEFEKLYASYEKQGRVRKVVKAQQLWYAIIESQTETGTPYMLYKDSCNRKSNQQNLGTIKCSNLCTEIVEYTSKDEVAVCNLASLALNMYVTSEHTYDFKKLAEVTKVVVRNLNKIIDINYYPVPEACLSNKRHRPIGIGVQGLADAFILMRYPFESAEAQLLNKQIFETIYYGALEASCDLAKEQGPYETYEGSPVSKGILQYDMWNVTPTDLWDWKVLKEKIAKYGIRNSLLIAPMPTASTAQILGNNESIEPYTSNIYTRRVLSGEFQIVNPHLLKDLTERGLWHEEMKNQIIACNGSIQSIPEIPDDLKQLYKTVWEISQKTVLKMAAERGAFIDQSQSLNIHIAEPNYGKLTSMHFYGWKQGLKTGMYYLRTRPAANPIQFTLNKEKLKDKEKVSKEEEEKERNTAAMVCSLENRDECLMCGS
# B1: RRM2B subunit of ribonucleotide reductase (natural protein, human (endogenous in RKO), UniProt Q7LG56 1-351, looked up)
# chain: MGDPERPEAAGLDQDERSSSDTNESEIKSNEEPLLRKSSRRFVIFPIQYPDIWKMYKQAQASFWTAEEVDLSKDLPHWNKLKADEKYFISHILAFFAASDGIVNENLVERFSQEVQVPEARCFYGFQILIENVHSEMYSLLIDTYIRDPKKREFLFNAIETMPYVKKKADWALRWIADRKSTFGERVVAFAAVEGVFFSGSFAAIFWLKKRGLMPGLTFSNELISRDEGLHCDFACLMFQYLVNKPSEERVREIIVDAVKIEQEFLTEALPVGLIGMNCILMKQYIEFVADRLLVELGFSKVFQAENPFDFMENISLEGKTNFFEKRVSEYQRFAVMAETTDNVFTLDADF
# B2: RRM2 subunit of ribonucleotide reductase (natural protein, human (endogenous in RKO), UniProt P31350 1-389, looked up)
# chain: MLSLRVPLAPITDPQQLQLSPLKGLSLVDKENTPPALSGTRVLASKTARRIFQEPTEPKTKAAAPGVEDEPLLRENPRRFVIFPIEYHDIWQMYKKAEASFWTAEEVDLSKDIQHWESLKPEERYFISHVLAFFAASDGIVNENLVERFSQEVQITEARCFYGFQIAMENIHSEMYSLLIDTYIKDPKEREFLFNAIETMPCVKKKADWALRWIGDKEATYGERVVAFAAVEGIFFSGSFASIFWLKKRGLMPGLTFSNELISRDEGLHCDFACLMFKHLVHKPSEERVREIIINAVRIEQEFLTEALPVKLIGMNCTLMKQYIEFVADRLMLELGFSKVFRVENPFDFMENISLEGKTNFFEKRVGEYQRMGVMSSPTENSFTLDADF
# Target: T1, RRM1 subunit of ribonucleotide reductase
# Experiment: co-IP
Binder,fold increase of RRM2B bound to RRM1 in <0.1% O2 against normoxia,fold decrease of RRM2 bound to RRM1 in <0.1% O2 against normoxia
B1,5.3 fold,
B2,,1.8 fold
